One block for each binder: values may come before it.
Target: T1, purified human CD47-Fc fusion protein (human, UniProt Q08722 19-139, limits assumed)
T1 construct: Coated on ELISA plates at 1.0 ug/ml; also called soluble CD47; human CD47 soluble protein; not shown: Fc part
Assay: ELISA on coated human CD47 soluble protein (FIG. 11)

T1 sequence (Q08722 19-139 limits assumed): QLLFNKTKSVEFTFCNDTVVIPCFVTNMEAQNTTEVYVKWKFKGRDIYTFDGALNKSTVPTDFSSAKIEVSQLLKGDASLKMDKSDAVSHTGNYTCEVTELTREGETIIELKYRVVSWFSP

binding result: binds
B1: chimeric 8B6 antibody (antibody, V domains shown)
VH: EVQLQQSGPELVKPGASVKMSCKASGYTFTTYVVHWVKQTPGQGLEWIGYINPYNDGTKYNEKFKGKATLTSDKSSSTAYMEFSSLTSEDSAVYYCVRGYYRYGYTMDYWGQGTSVTVSS
VL: DIVMTQSPATLSVTPGDRVSLSCRASQNFSDYLHWYQQKSHESPRLLIKYVSHSISGIPSRFSGSGSGSDFTLSINSVEPEDVGVYYCQNGHSFPPTFGGGTKLEIK
notes: Mouse 8B6 variable regions in a chimeric native IgG; detection was with anti-human kappa

binding result: binds
B2: chimeric 5F9 antibody (antibody, V domains shown)
VH: QVQLQQPGAELVKPGASVMMSCKASGYTFTNYNMHWVKQTPGQGLEWIGTIYPGNDDTSYNQKFKDKATLTADKSSSAAYMQLSSLTSEDSAVYYCARGGYRAMDYWGQGTSVTVSS
VL: DVLMTQTPLSLPVSLGDQASISCRSSQSIVYSNGNTYLGWYLQKPGQSPKLLIYKVSNRFSGVPDRFSGSGSGTDFTLKISRVEAEDLGVYHCFQGSHVPYTFGGGTKVEIK
notes: Mouse 5F9 variable regions in a chimeric native IgG; detection was with anti-human kappa
